From patent US20240294650A1 (Alector, published 2024)

B1: MTK-225 (antibody, human IgG1, V domains shown)
VH: EVQLQQSGPELVKPGASVKIFCKASGYTFTAYNMDWVKQSHGKSLEWIGDINPNNGGTIYNQKFKGKATLTVDKSSSTAYMELRSLTSEDTAVYYCARRRRYGNTYYWYFDVWGTGTTVTVSS
VL: DIQMTQSPASLSVSVGETVTITCRASENIYSSLAWYQQKQGKSPQLLVYAATNLADGVPSRFSGSGSGTQFYLKINGLQSEDFGSYYCQHFWGTSYTFGGGTKLEIK
B2: MTK-207 (antibody, human IgG1, V domains shown)
VH: QVQLKESGPGLVAPSQSLSITCTVSGISLTSYGVSWVRQPPGKGLEWLGIIWGDGSTNYHSALISRLSISKDNSKSQVFLKLNSLQTDDTATYYCAKGRYGNYEDWYFDVWGTGTTVTVSS
VL: DIQMTQSPASLSASVGETVTITCRASGNIHNYLAWYQQKQGKSPQLLVYNAKTLAAGVPSRFSGSGSGTQYSLKINSLQPEDFGSYYCQHFWSIPLTFGAGTKLELK
B3: MTK-221 (antibody, human IgG1, V domains shown)
VH: QVTLKESGPGMLQSSQTLSLTCSFSGFSLSTSGMGVSWIRQPSGKGLEWLAHIYWDDDKRYNTSLQSRLTISKDTSRNQVFLKITSVDTADTATYFCGRLGAYSAFPYYFDYWGQGTTLTVSS
VL: DIQMTQSPSSLSASLGGKVTITCKASQDIHKHIAWYQHKPGKGPRLLIHYTSTLQPGIPSRFSGSGSGRDYSFSISNLEPEDLATYYCLQYDNLWTFGGGTKLEIK

What follows are binders tested against T1, Recombinant human MerTK-human Fc Chimera protein (human, UniProt Q12866 26-499, limits assumed) (assay: blocking ELISA, ProS-His on MerTK-Fc, Ab 66.6 nM, isotype=100%).
T1 construct: bought construct; also called MerTK-Fc (R&D systems, Cat #391-MR-100)
T1 sequence: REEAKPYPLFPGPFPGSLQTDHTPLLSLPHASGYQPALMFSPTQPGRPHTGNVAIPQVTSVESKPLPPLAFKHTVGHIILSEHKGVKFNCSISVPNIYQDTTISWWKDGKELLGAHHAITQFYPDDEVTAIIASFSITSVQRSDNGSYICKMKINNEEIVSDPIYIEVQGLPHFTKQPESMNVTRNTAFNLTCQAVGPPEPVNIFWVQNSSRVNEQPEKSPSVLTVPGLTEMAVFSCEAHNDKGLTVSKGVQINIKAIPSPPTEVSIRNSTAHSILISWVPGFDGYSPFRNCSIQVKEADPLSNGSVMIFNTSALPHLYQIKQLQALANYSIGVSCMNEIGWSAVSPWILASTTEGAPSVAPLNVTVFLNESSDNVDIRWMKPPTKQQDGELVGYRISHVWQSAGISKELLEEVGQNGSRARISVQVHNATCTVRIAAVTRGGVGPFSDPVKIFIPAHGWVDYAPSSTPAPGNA
Experimental: (§1) Briefly, rabbit anti-human IgG antibody (Jackson ImmunoResearch, Cat #309-005-008) was coated at 2 μg/ml onto high-protein binding plates at 4° C. overnight. After washing with 0.05% Tween20 in PBS three times, 5% BSA in PBS was added for 1 hour. Recombinant human MerTK-human Fe Chimera protein (R&D systems, Cat #391-MR-100) was added at 2 μg/ml for 1 hour and plates were washed before the addition of 40 μl of anti-MerTK hybridoma supernatants and 40 μl of His tag-conjugated recombinant Gas6 (R&D systems, Cat #885-GSB-050) at 3 μg/ml or His tag-conjugated recombinant ProS (R&D systems, Cat #9489-PS-100) at 20 μg/ml. After a further incubation for 1 hour, plates were washed and incubated for 1 hour with HRP-conjugated anti-6×His tagged antibody (Abcam, Cambridge, MA, Cat #ab1187). Plates were then washed and an HRP substrate, TMB, was added to develop the plates. The reaction was stopped by adding 50 μl 2N H₂SO₄ and the OD was measured using a spectrophotometer (BioTek).
(§2) Anti-MerTK antibodies were titrated to a final concentration from 66.6 nM to 4 pM and tested against anti-human MerTK antibody M6 (disclosed in WO2016/106221) or isotype control antibody.

Binder | Percent ProS ligand binding
B1 | 186%
B2 | 95.5%
B3 | 72.8%

These binders were tested against T1, Recombinant human MerTK-human Fc … (assay: blocking ELISA, Gas6-His on MerTK-Fc, Ab 66.6 nM, isotype=100%).
Experimental: as §1, §2

Binder | Percent Gas6 ligand binding
B1 | 120%
B2 | 116%
B3 | 106%

The binders below were run against T2, human MerTK (human, UniProt Q12866 21-999) (assay: FACS, SK-MEL-5 cells, 10 ug/ml).
T2 construct: endogenous receptor on cells; also called human MerTK endogenously expressed on SK-MEL-5 cells; MerTK on human macrophages
T2 sequence: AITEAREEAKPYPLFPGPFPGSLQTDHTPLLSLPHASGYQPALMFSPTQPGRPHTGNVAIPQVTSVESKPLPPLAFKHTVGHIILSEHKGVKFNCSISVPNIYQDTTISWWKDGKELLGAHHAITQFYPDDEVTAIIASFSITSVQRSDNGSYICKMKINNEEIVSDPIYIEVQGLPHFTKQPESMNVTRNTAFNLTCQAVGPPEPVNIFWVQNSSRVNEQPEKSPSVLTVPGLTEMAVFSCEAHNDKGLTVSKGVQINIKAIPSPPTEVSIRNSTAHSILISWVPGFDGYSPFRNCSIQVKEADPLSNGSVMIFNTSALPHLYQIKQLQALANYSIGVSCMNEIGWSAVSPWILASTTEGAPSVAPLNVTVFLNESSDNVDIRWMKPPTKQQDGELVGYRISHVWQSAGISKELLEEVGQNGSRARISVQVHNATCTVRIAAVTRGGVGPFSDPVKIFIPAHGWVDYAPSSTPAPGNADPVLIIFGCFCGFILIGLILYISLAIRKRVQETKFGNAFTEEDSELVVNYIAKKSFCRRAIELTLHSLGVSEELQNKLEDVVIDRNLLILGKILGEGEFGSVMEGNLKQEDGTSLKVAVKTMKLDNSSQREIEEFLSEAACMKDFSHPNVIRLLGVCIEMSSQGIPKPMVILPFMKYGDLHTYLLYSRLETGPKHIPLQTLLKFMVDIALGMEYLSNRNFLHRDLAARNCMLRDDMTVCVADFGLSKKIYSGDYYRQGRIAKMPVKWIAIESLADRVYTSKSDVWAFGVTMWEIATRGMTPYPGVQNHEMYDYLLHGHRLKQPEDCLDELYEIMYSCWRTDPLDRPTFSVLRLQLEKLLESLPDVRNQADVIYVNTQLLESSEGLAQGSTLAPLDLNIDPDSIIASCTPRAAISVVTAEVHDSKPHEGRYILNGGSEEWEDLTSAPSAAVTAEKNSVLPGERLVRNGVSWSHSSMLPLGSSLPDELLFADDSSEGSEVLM
Experimental: To determine whether recombinant anti-human MerTK antibodies of the present disclosure bind to human MerTK endogenously expressed on SK-MEL-5 cells and CHO cells overexpressing mouse MerTK (CHO-muMerTK OE cells), as compared to A375 and parental CHO cells as negative controls, the following experiments were performed. SK-MEL-5 cells, A375 cells, CHO-muMerTK OE cells, and CHO parental cells were plated at 100,000 cells/well. Anti-MerTK antibodies were added to the cells at 10 μg/ml. After 60 minutes on ice, cells were washed and then stained with PE-conjugated goat anti-human IgG antibody (Southern Biotech Cat #2040-09, Birmingham, AL) in the presence of Fc block solution on ice for 30 minutes, and then washed twice with cold FACS buffer (2% FBS in PBS). Mouse anti-human MerTK-PE conjugated (Biolegend, Clone 590H11G1E3) or anti-mouse MerTK-PE conjugated (ThermoFisher, Clone DS5MMER) antibodies were used as positive controls. Stained cells were acquired on a BD FACS Canto II cytometer and the mean fluorescence intensity (MFI) was calculated with FlowJo.

Binder | MFI
B1 | 40200 MFI
B2 | 1190 MFI
B3 | 42800 MFI
